{"source": "patent US20240075098A1", "target": "DTR"}
{"substance": "Diphtheria toxin (from UniProt P00588)", "values": [{"measurement": "death of cochlea outer hair cells in Prestin-P2A-DTR/+ mice after DT at P36", "result": "> 90", "unit": "%"}]}
